Article doi:10.1101/521351 (bioRxiv, 2019)

Legend:
[1] = molecular target: ICA512 RESP18HD (regulated endocrine-specific protein 18 homology domain of ICA512, residues 35-131) (human) (UniProt Q16849); test: co-sedimentation
light scattering = molecular target: the molecule itself; test: light scattering

stoichiometry N ([1]; scale: mole of insulin per mole of ICA512 RESP18HD) | stoichiometry N ([1]; scale: moles of insulin per mole of ICA512 RESP18HD) | Molecule | binding result (light scattering)
0.4 | 2.8 | Human insulin (ligand) | –
– | – | ICA512 RESP18HD (regulated endocrine-specific protein 18 homology domain of ICA512, residues 35-131) (domain or fragment, human, UniProt Q16849 35-131, looked up) VSAHGCLFDRRLCSHLEVCIQDGLFGQCQVGVGQARPLLQVTSPVLQRLQGVLRQLMSQGLSWHDDLTQYVISQEMERIPRLRPPEPRPRDRSGLAP | binds
